Measurements taken from patent US10786576B2, “Fatty acids and their use in conjugation to biomolecules” (Novartis AG, dated 2020).
Positions of bridges follow the written chain, without caps; N, C: chain ends. Non-standard residues stand in square brackets, D forms with d. No end group written: not given here. pGlu = O=C1CC[C@@H](C(=O)O)N1; Nle = CCCC[C@H](N)C(=O)O; I‑37 = not defined here

Key:
RXFP1 [1] = biological target: RXFP1
RXFP1 [2] = biological target: RXFP1; remark: listed apart in the source
[3] = biological target: hFGF23-variant of Example 28B
APJ = APJ (human, UniProt P35414); experiment: cell-based or functional assay

MC3R, sequence (P41968 whole entry): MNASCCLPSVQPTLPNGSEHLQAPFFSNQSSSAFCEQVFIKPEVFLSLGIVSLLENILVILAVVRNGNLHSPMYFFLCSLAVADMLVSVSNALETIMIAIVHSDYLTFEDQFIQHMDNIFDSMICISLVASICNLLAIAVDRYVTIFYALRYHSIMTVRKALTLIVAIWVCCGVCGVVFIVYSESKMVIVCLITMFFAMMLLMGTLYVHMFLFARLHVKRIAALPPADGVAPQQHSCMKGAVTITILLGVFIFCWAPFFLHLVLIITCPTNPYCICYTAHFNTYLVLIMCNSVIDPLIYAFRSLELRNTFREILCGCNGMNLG
oxytocin receptor, sequence (P30559 whole entry): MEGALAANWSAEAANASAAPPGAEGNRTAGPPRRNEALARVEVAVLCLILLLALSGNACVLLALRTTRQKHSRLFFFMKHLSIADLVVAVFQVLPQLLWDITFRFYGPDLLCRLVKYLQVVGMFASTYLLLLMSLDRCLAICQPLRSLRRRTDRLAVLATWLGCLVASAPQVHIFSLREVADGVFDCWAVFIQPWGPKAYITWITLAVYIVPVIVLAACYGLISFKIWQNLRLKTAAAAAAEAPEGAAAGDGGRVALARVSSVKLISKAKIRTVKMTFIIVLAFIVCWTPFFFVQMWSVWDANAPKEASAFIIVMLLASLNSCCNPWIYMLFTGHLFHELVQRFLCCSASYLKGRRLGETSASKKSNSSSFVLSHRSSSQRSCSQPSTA

Oxytocin (peptide)
Emax (the concentration where the reference agonist elicited a maximal response), calcium flux (oxytocin receptor): 1.25 µM

Serelaxin (ligand)
cAMP (HTRF), agonist mode, EC50 (RXFP1 [1]): 1.12 nM | cAMP (HTRF), Ec50 (nM), 0% Plasma (RXFP1 [2]): 8 nM | cAMP (HTRF), Ec50 (nM), 4% Plasma (RXFP1 [2]): 0.3 nM | cAMP (HTRF), Ec50 (nM), 10% Plasma (RXFP1 [2]): 0.4 nM | cAMP (HTRF), Ec50 (nM), 600 uL BSA (RXFP1 [2]): 0.7 nM

{I‑37}-SSRRCVRLHESCLGQQVPCCDPCATCYCRFFNAFCYCRKLGTAMNPCSRT (ligand, disulfide 12-26, 19-37, 5-20, 23-47, 28-35; reading uncertain) [Example 27A: Mono fatty acid conjugate of AgRP (AgRP+1FA)]
MC4R EC50 [nM] (HTRF cAMP assay) (MC4R): 18 nM | MC3R EC50 [nM] (cAMP assay, antagonist protocol) (MC3R): 7 nM

B1: Example 27B: Di-fatty acid conjugate of AgRP(83-132) (AgRP+2 FA) (ligand)
chain: {I‑37}-SSRRCVRLHESCLGQQVPCCDPCATCYCRFFNAFCYCRK(I‑37)LGTAMNPCSRT
modifications: disulfide 12-26, 19-37, 5-20, 23-47, 28-35; not fully specified; printed as Ser-Ser-Arg-Arg-Cys-Val-Arg-Leu-H is-Glu-Ser-Cys-Leu-Gly-Gln-Gln-Val-Pro-Cys-Cys-Asp-Pro-Cys-Ala-Thr-Cys-Tyr-Cys-Arg-Phe-Phe-Asn-Ala-Phe-Cys-Tyr-Cys-Arg-Lys-Leu-Gly-Thr-Ala-Met-Asn-Pro-Cys-Ser-Arg-Thr; reading uncertain
MC4R EC50 [nM] (HTRF cAMP assay) (MC4R): 167 nM | MC3R EC50 [nM] (cAMP assay, antagonist protocol) (MC3R): 65 nM

SSRRCVRLHESCLGQQVPCCDPCATCYCRFFNAFCYCRKLGTAMNPCSRT (ligand, disulfide 12-26, 19-37, 5-20, 23-47, 28-35) [AgRP(83-132)]
MC3R EC50 [nM] (cAMP assay, antagonist protocol) (MC3R): 12 nM

B2: transglutaminase enzyme (Ajinomoto) (enzyme)
chain: DSDDRVTPPAEPLDRMPDPYRPSYGRAETVVNNYIRKWQQVYSHRDGRKQQMTEEQREWLSYGCVGVTWVNSGQYPTNRLAFASFDEDRFKNELKNGRPRSGETRAEFEGRVAKESFDEEKGFQRAREVASVMNRALENAHDESAYLDNLKKELANGNDALRNEDARSPFYSALRNTPSFKERNGGNHDPSRMKAVIYSKHFWSGQDRSSSADKRKYGDPDAFRPAPGTGLVDMSRDRNIPRSPTSPGEGFVNFDYGWFGAQTEADADKTVWTHGNHYHAPNGSLGAMHVYESKFRNWSEGYSDFDRGAYVITFIPKSWNTAPDKVKQGWP
TGase labelling of hFGF23-variant with intermediate 25d, LCMS [3]: 90%

B3: pE-R-P-C*-L-S-C*-K-G-P-(D-Nle)-NH(Phenethyl) (disulfide C4-C7) (peptide)
peptide: ERPCLSCKGPL
modifications: pE (pyroglutamate) at the N-terminus; D-Nle at position 11; C-terminal NH(Phenethyl); disulfide C4-C7
hAPJ Ca2+ Flux EC50 (APJ): 3 nM

B4: pE-R-P-R-L-C*-H-K-G-P-Nle-C*-F-OH (Disulfide C6-C12) (peptide)
peptide: [pGlu]RPRLCHKGP[Nle]CF-OH
modifications: disulfide 6-12
SMILES: CCCC[C@@H]1NC(=O)[C@@H]2CCCN2C(=O)CNC(=O)[C@H](CCCCN)NC(=O)[C@H](Cc2c[nH]cn2)NC(=O)[C@@H](NC(=O)[C@H](CC(C)C)NC(=O)[C@H](CCCNC(=N)N)NC(=O)[C@@H]2CCCN2C(=O)[C@H](CCCNC(=N)N)NC(=O)[C@@H]2CCC(=O)N2)CSSC[C@@H](C(=O)N[C@@H](Cc2ccccc2)C(=O)O)NC1=O
hAPJ Ca2+ Flux EC50 (APJ): 1.04 nM
